According to the Human Domainome abundance scans (Beltran et al. 2025):
± gives the uncertainty stated by the source.

B1: Metastasis-associated protein MTA3, residues 265 to 317; numbered along this chain, Q9BTC8 (parent)
chain: RDEMEEWSASEASLFEEALEKYGKDFNDIRQDFLPWKSLTSIIEYYYMWKTTD

Variants of: B1
Test: abundance fitness (aPCA) (normalised: wild type 0, dead -1); higher = more abundant; growth selection in yeast, the domain comes from the species named
Settings: Homo sapiens
In the case of RDEMEEWGASEASLFEEALEKYGKDFNDIRQDFLPWKSLTSIIEYYYMWKTTD [S8G], the abundance fitness is reported as -0.571 ± 0.12. In the case of RDEMEEWTASEASLFEEALEKYGKDFNDIRQDFLPWKSLTSIIEYYYMWKTTD [S8T], the abundance fitness is reported as 0.018 ± 0.1. In the case of RDEMEEWIASEASLFEEALEKYGKDFNDIRQDFLPWKSLTSIIEYYYMWKTTD [S8I], the abundance fitness is reported as -0.518 ± 0.17. With RDEMEEWAASEASLFEEALEKYGKDFNDIRQDFLPWKSLTSIIEYYYMWKTTD [S8A] the abundance fitness was -0.715 ± 0.18. In the case of RDEMEEWCASEASLFEEALEKYGKDFNDIRQDFLPWKSLTSIIEYYYMWKTTD [S8C], the abundance fitness is reported as -0.9 ± 0.18. RDEMEEWLASEASLFEEALEKYGKDFNDIRQDFLPWKSLTSIIEYYYMWKTTD [S8L] gave an abundance fitness of -0.889 ± 0.12. RDEMEEWVASEASLFEEALEKYGKDFNDIRQDFLPWKSLTSIIEYYYMWKTTD [S8V] showed an abundance fitness of -0.949 ± 0.15. Variant RDEMEEWPASEASLFEEALEKYGKDFNDIRQDFLPWKSLTSIIEYYYMWKTTD [S8P] has an abundance fitness of -0.884 ± 0.14. For RDEMEEWRASEASLFEEALEKYGKDFNDIRQDFLPWKSLTSIIEYYYMWKTTD [S8R], the abundance fitness was -0.93 ± 0.12. In the case of RDEMEEWMASEASLFEEALEKYGKDFNDIRQDFLPWKSLTSIIEYYYMWKTTD [S8M], the abundance fitness is reported as -0.771 ± 0.17. Variant RDEMEEWYASEASLFEEALEKYGKDFNDIRQDFLPWKSLTSIIEYYYMWKTTD [S8Y] has an abundance fitness of 0.086 ± 0.14. Variant RDEMEEWWASEASLFEEALEKYGKDFNDIRQDFLPWKSLTSIIEYYYMWKTTD [S8W] has an abundance fitness of -0.303 ± 0.16. Variant RDEMEEWFASEASLFEEALEKYGKDFNDIRQDFLPWKSLTSIIEYYYMWKTTD [S8F] has an abundance fitness of -0.935 ± 0.23. With RDEMEEWQASEASLFEEALEKYGKDFNDIRQDFLPWKSLTSIIEYYYMWKTTD [S8Q] the abundance fitness was -0.749 ± 0.28. For RDEMEEWKASEASLFEEALEKYGKDFNDIRQDFLPWKSLTSIIEYYYMWKTTD [S8K], the abundance fitness was -0.696 ± 0.18. Work on RDEMEEWDASEASLFEEALEKYGKDFNDIRQDFLPWKSLTSIIEYYYMWKTTD [S8D] yielded an abundance fitness of -0.587 ± 0.12. Variant RDEMEEWHASEASLFEEALEKYGKDFNDIRQDFLPWKSLTSIIEYYYMWKTTD [S8H] has an abundance fitness of -0.696 ± 0.13. Work on RDEMEEWSFSEASLFEEALEKYGKDFNDIRQDFLPWKSLTSIIEYYYMWKTTD [A9F] yielded an abundance fitness of -0.726 ± 0.26. With RDEMEEWSNSEASLFEEALEKYGKDFNDIRQDFLPWKSLTSIIEYYYMWKTTD [A9N] the abundance fitness was -0.677 ± 0.16. With RDEMEEWSKSEASLFEEALEKYGKDFNDIRQDFLPWKSLTSIIEYYYMWKTTD [A9K] the abundance fitness was -0.505 ± 0.097. In the case of RDEMEEWSESEASLFEEALEKYGKDFNDIRQDFLPWKSLTSIIEYYYMWKTTD [A9E], the abundance fitness is reported as -0.042 ± 0.12. Variant RDEMEEWSVSEASLFEEALEKYGKDFNDIRQDFLPWKSLTSIIEYYYMWKTTD [A9V] has an abundance fitness of -0.359 ± 0.086. For RDEMEEWSISEASLFEEALEKYGKDFNDIRQDFLPWKSLTSIIEYYYMWKTTD [A9I], the abundance fitness was -0.335 ± 0.2. Work on RDEMEEWSRSEASLFEEALEKYGKDFNDIRQDFLPWKSLTSIIEYYYMWKTTD [A9R] yielded an abundance fitness of -0.356 ± 0.072. For RDEMEEWSGSEASLFEEALEKYGKDFNDIRQDFLPWKSLTSIIEYYYMWKTTD [A9G], the abundance fitness was -0.714 ± 0.19. With RDEMEEWSSSEASLFEEALEKYGKDFNDIRQDFLPWKSLTSIIEYYYMWKTTD [A9S] the abundance fitness was -0.331 ± 0.078. Work on RDEMEEWSYSEASLFEEALEKYGKDFNDIRQDFLPWKSLTSIIEYYYMWKTTD [A9Y] yielded an abundance fitness of -0.916 ± 0.17. With RDEMEEWSWSEASLFEEALEKYGKDFNDIRQDFLPWKSLTSIIEYYYMWKTTD [A9W] the abundance fitness was -0.527 ± 0.14. With RDEMEEWSTSEASLFEEALEKYGKDFNDIRQDFLPWKSLTSIIEYYYMWKTTD [A9T] the abundance fitness was -0.332 ± 0.09. Work on RDEMEEWSMSEASLFEEALEKYGKDFNDIRQDFLPWKSLTSIIEYYYMWKTTD [A9M] yielded an abundance fitness of -0.909 ± 0.25. RDEMEEWSPSEASLFEEALEKYGKDFNDIRQDFLPWKSLTSIIEYYYMWKTTD [A9P] gave an abundance fitness of -0.29 ± 0.085. In the case of RDEMEEWSCSEASLFEEALEKYGKDFNDIRQDFLPWKSLTSIIEYYYMWKTTD [A9C], the abundance fitness is reported as -0.564 ± 0.1. In the case of RDEMEEWSLSEASLFEEALEKYGKDFNDIRQDFLPWKSLTSIIEYYYMWKTTD [A9L], the abundance fitness is reported as -0.5 ± 0.11. RDEMEEQSASEASLFEEALEKYGKDFNDIRQDFLPWKSLTSIIEYYYMWKTTD [W7Q] gave an abundance fitness of -1.03 ± 0.25. For RDEMEELSASEASLFEEALEKYGKDFNDIRQDFLPWKSLTSIIEYYYMWKTTD [W7L], the abundance fitness was -0.71 ± 0.099. With RDEMEERSASEASLFEEALEKYGKDFNDIRQDFLPWKSLTSIIEYYYMWKTTD [W7R] the abundance fitness was -0.715 ± 0.15. With RDEMEEFSASEASLFEEALEKYGKDFNDIRQDFLPWKSLTSIIEYYYMWKTTD [W7F] the abundance fitness was -0.681 ± 0.26. For RDEMEEHSASEASLFEEALEKYGKDFNDIRQDFLPWKSLTSIIEYYYMWKTTD [W7H], the abundance fitness was -0.909 ± 0.14. With RDEMEEDSASEASLFEEALEKYGKDFNDIRQDFLPWKSLTSIIEYYYMWKTTD [W7D] the abundance fitness was -0.814 ± 0.28. RDEMEEVSASEASLFEEALEKYGKDFNDIRQDFLPWKSLTSIIEYYYMWKTTD [W7V] showed an abundance fitness of -0.979 ± 0.14. RDEMEENSASEASLFEEALEKYGKDFNDIRQDFLPWKSLTSIIEYYYMWKTTD [W7N] showed an abundance fitness of -0.697 ± 0.18. For RDEMEETSASEASLFEEALEKYGKDFNDIRQDFLPWKSLTSIIEYYYMWKTTD [W7T], the abundance fitness was -0.884 ± 0.15. RDEMEECSASEASLFEEALEKYGKDFNDIRQDFLPWKSLTSIIEYYYMWKTTD [W7C] showed an abundance fitness of -0.952 ± 0.13. With RDEMEEESASEASLFEEALEKYGKDFNDIRQDFLPWKSLTSIIEYYYMWKTTD [W7E] the abundance fitness was -0.925 ± 0.33. Variant RDEMEEMSASEASLFEEALEKYGKDFNDIRQDFLPWKSLTSIIEYYYMWKTTD [W7M] has an abundance fitness of -1 ± 0.36. RDEMEEGSASEASLFEEALEKYGKDFNDIRQDFLPWKSLTSIIEYYYMWKTTD [W7G] showed an abundance fitness of -0.427 ± 0.16. With RDEMEEYSASEASLFEEALEKYGKDFNDIRQDFLPWKSLTSIIEYYYMWKTTD [W7Y] the abundance fitness was -0.496 ± 0.19. Work on RDEMEESSASEASLFEEALEKYGKDFNDIRQDFLPWKSLTSIIEYYYMWKTTD [W7S] yielded an abundance fitness of -0.777 ± 0.11. RDEMEEKSASEASLFEEALEKYGKDFNDIRQDFLPWKSLTSIIEYYYMWKTTD [W7K] gave an abundance fitness of -0.549 ± 0.17.
